The record followed here is PMC5952411 (EBioMedicine, 2018).

What all share (assay): BLI
A general note: In BLI a coated tip is dipped into the sample, and binding shifts an interference pattern.

Assay [1] has as its target Pup^E (prokaryotic ubiquitin-like protein Pup with its C-terminal glutamine converted to glutamate), biotinylated (M. tuberculosis) (UniProt P9WHN5).
Assay [2] has as its target T1, M. tuberculosis PafA S119A (M. tuberculosis H37Rv, UniProt P9WNU7 1-452, S119A).
T1 sequence: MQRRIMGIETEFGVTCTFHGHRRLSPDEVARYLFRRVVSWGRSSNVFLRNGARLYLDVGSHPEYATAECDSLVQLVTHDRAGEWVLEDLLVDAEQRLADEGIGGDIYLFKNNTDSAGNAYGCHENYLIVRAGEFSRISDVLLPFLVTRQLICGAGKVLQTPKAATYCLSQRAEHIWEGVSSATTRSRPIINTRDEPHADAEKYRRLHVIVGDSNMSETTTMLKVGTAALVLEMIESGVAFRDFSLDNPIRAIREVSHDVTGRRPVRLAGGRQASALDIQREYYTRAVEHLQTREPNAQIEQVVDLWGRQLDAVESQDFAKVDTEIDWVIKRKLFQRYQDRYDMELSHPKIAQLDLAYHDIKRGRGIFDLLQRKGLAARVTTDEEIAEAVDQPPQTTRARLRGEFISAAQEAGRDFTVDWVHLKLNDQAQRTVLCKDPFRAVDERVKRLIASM

For assay [3], the target named is T2, M. tuberculosis PafA (Pup ligase), wild type (M. tuberculosis H37Rv, UniProt P9WNU7 1-452).
T2 sequence: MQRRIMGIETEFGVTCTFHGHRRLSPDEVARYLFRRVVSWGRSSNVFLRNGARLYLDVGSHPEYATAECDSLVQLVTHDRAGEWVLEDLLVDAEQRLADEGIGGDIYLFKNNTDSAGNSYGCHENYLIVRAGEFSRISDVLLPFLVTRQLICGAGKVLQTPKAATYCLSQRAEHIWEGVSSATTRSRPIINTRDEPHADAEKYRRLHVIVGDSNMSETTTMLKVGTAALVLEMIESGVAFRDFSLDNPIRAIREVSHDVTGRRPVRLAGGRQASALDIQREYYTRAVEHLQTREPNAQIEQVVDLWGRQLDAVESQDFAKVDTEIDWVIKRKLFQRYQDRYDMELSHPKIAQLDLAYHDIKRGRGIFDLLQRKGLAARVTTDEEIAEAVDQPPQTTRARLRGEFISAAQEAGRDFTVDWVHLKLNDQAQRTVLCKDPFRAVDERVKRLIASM

In assay [1], “M. tuberculosis PafA pre-incubated with AEBSF (AEBSF covalently bound at S119) (from UniProt P9WNU7 1-452) (enzyme)” returned a fold KD against WT PafA of 2 fold.

B1: Pup^E (prokaryotic ubiquitin-like protein Pup with its C-terminal glutamine converted to glutamate), biotinylated (natural protein)
chain: MAQEQTKRGGGGGDDDDIAGSTAAGQERREKLTEETDDLLDEIDDVLEENAEDFVRAYVQKGGE
modifications: biotinylated with EZLink Sulfo-NHS-LC-Biotin (sites not given)
For the molecule B1, the binding result in assay [2] and in assay [3] was “binds” in each case.
